{
  "source": "the DeepSol protein solubility set",
  "data": [
    {"experiment": "soluble on expression in E. coli; label from the status in PepcDB or PDB records", "values": [
      {"sequence": "MSLKITDVDVWVVNLPLVNPFTSSFETKTGETRTVVRVRTDSGVEGWGETMWGAPVAAIVRRMAPDLIGTSPFALEAFHRKQHMVPFFYGYLGYAAIAAVDVACWDAMGKATGQSVTDLLGGAVRDEVPITALITRADAPGATPADLPKAMAEHAVRVVEEGGFDAVKLKGTTDCAGDVAILRAVREALPGVNLRVDPNAAWSVPDSVRAGIALEELDLEYLEDPCVGIEGMAQVKAKVRIPLCTNMCVVRFEDFAPAMRLNAVDVIHGDVYKWGGIAATKALAAHCETFGLGMNLHSGGELGIATAAHLAVVSSTPVLSRAIDSMYYLHADDIIEPLHLENGRLRVPSGPGLGVSVDEDKLRHYAGVNERDGDLTGEGHHHHHH", "soluble on expression in E. coli": "soluble"},
      {"sequence": "MSLKITQIQAQNKNKNRRNVFVDGSYEFSCDMEIILKYKLKEGLEIDRTKLLQVIDQSKEEFAFRLALNYLSFKSRTSFEIYTYLLKKEYEEKIIEKVIEKLKYYRYVDDNQYVLNYIKTALAEGKKGKDRVQSDLINKKIPQDMIESHMHLFSCETNLEIAKELSNKYFKQNAHLPFNQFKNKLSQFLMRKGFNWEIINTCLNILEQDSEEGHHHHHH", "soluble on expression in E. coli": "soluble"},
      {"sequence": "MSLKITSIETIPIKVPIKPEFAIRSGRGGSHVVSPFLLVKVHTDAGITGLGEVSCTPRWSGEDQVSAAHFIKTYLAPLLEGEDPRQIESLTAKFRLGVAGNFFTKSGIEMALWDIAGKAAGKPVYELLGGTVREFIPTKWSVSGQEPDKAADIARWAVAQGFKAMKVKVGIEPDKDVARVAAVRAAIGSQIKLGVDANGGWSREVAASTIERLYASSIYFAEQPIPPEDLLYLPELRKQLKVPIIADESIYSLQDAMTLAHLQAADVFSIYVGKAGGIGPARKIAQFAESVGLKCTVGSNLELGIGSAAMIHLAIATHAIDAESYPCDIIGPMFYEDDMLVEPLPIVAGKAQPNSKPGLGVELNEKTVEKYRVCEGHHHHHH", "soluble on expression in E. coli": "soluble"},
      {"sequence": "MSLKKFYHLVVRILSKMITPQVIDKPHIVFMMTFPEDIKPIIKALNNSSYQKTVLTTPKQAPYLSELSDDVDVIEMTNRTLVKQIKALKSAQMIIIDNYYLLLGGYNKTSNQHIVQTWHASGALKNFGLTDHQVDVSDKAMVQQYRKVYQATDFYLVGCEQMSQCFKQSLGATEEQMLYFGLPRINKYYTADRATVKAELKDKYGITNKLVLYVPTYREDKADNRAIDKAYFEKCLPGYTLINKLHPSIEDSDIDDVSSIDTSTLMLMSDIIISDYSSLPIEASLLDIPTIFYVYDEGTYDQVRGLNQFYKAIPDSYKVYTEEDLIMTIQEKEHLLSPLFKDWHKYNTDKSLHQLTEYIDKMVTKEGGSHHHHHH", "soluble on expression in E. coli": "soluble"},
      {"sequence": "MSLKKLVIFDLDGTLLNTIADLAHSTNYALNKLGYPTHEIEKYNFMVGNGIDKLFERALPEGEKSKENVLRVRKEFVPYYDIHNADDSRPYPGIPELLSYLQDAGIQITVASNKYQAATQKLIDHYFPEIHFTAVFGQREGIKVKPDPTVVFDILEVAKVTKEEVLYVGDSGVDMQTAANAGVTVCGVTWGFRPRAELEEFSPQYIVDTAEEIKRLILEGHHHHHH", "soluble on expression in E. coli": "soluble"},
      {"sequence": "MSLKKQRIVVKIGSSSLTNSKGSIDEAKIREHVQAISVLKKAGHEMILITSGAVAAGFSSLGYPSRPVTIKGKQAAAAVGQTLLMQQYMNQFKQYSLTPGQILLTRNDFSKRERYRNAYATIMELLERGVIPIINENDSTSVEELTFGDNDMLSALVSGLIHADQLMILTDINGLYDANPNENPEAKRFDYLPEITPELLGYAGSAGSKVGTGGMKSKLLATQTALSLGVKVFIGTGSGEQKLADILDGRGDGTYIGDKELSSVNNTRQWIQFHSPISGEIIIDAGAEEAMIHNGSSLLPAGVVGVNGSFPKGAVVEVRGPGGVIGKGQTHYSSEEIMEAKGKRSDELDFEKTFEVIHEGHHHHHH", "soluble on expression in E. coli": "soluble"},
      {"sequence": "MSLKLHKGIKEYECKECHRRFAQKVNMLKHCKRHTGIKDFMCELCGKTFSERNTMETHKLIHTVGKQWTCSVCDKKYVTEYMLQKHVQLTHDKVEAQSCQLCGTKVSTRASMSRHMRRKHPEVLAVRIDDLDHLPETTTIDASSIGIVQPELTLEQEDLAEGKHGKAAKRSHKRKQKPEEEAGAPVPEDATFSEYSEKETEFTGSVGDETNSAVQSIQQVVVTLGDPNVTTPSSSVGLTNITVTPITTAAATQFTNLQPVAVGHLTTPERQLQLDNSILTVTFDTVSGSAMLHNRQNDVQIHPQPEASNPQSVAHFINLTTLVNSITPLGSQLSDQHPLTWRAVPQTDVLPPSQPQAPPQQAAQPQVQAEQQQQQMYSYEGHHHHHH", "soluble on expression in E. coli": "not soluble"},
      {"sequence": "MSLKLTVVGLGYIGLPTSIMFAKHGVDVLGVDINQQTIDKLQSGQISIEEPGLQEVYEEVLSSGKLKVSTTPEASDVFIIAVPTPNNDDQYRSCDISLVMRALDSILPFLEKGNTIIVESTIAPKTMDDFVKPVIENLGFTIGEDICLVHCPERVLPGKILEELVHNNRIIGGVTKACIEAGKYVYRTFVQGEMIETDARTAEMSKLMENTYRDVNIALANELTKICNNLNINVLDVIEMANKHPRVNIHQPGPGVGGHCLAVDPYFIIAKDPENAKLIQTGREINNSMPAYVVDTTKQIIKALSGNKVTVFGLTYKGDVDDIRESPAFDIYELLNQEPDIEVCAYDPHVELDFVEHDMSHAVKDASLVLILSDHSEFKNLSDSHFDKMKHKVIFDTKNVVKSSFEDVSYYNYGNIFNFIDKEGHHHHHH", "soluble on expression in E. coli": "soluble"},
      {"sequence": "MSLKLVEILVLGQVLRLNVPIEQEELLRQAARNLDILVSEMKEKTGLIQLDRVLSIVALNLSFELSQEKNKTAKIEEVLRTGIQQLDHSLENIRVTKEPH", "soluble on expression in E. coli": "soluble"},
      {"sequence": "MSLKNEIQFEVFGDYALFTDPLTKIGGEKLSYSVPTYQALKGIVESIYWKPTIIFTIDKLRVMKPIQMESKGVRPIDYGGGNTLAHYTYLKDVHYQVKAHFDFNFNRPDLAFDRNEGKHYSILQRSLKAGGRRDIFLGTRECQGYVAPCEFGSGSGYYDGQGEYRLGTMVHGFNYPDETGQNQLDVRLWPAVMNDGYIKFPKPEDCTMIRPIKEMEPKEFKRDDIQSVEQLSYEVGGEEGHHHHHH", "soluble on expression in E. coli": "soluble"},
      {"sequence": "MSLKNIVFDIGNVLLKFTPVEFLKSKYKDDKLVEALYENVFKSNEWVELDRGTITEEEATCRFCKRDPHNAKYIREVMETWNEMHVPVEGTSELMKELREKGYKIYLLSNYHLKAFKLISDKYDFIRDVDGGIISSKVKLLKPELEIYKALTNSCGIKPEESIFIDDREENVEAAIKLGFNGIVFKDAYELKGKFDELGIAIEGHHHHHH", "soluble on expression in E. coli": "soluble"},
      {"sequence": "MSLKNLGSPVFFFQERPGKDGKPFKMVKFRSMRDALDSDGIPLPDGERLTPFGKKLRAASLDELPELWNILKGEMSLVGPRPLLMQYLPLYDNFQNRRHEMKPGITGWAQVNGRNALSWDEKFACDVWYIDHFSLCLDIKILLLTVKKVLIKEGISAQGEATMPPFTGKRKLAVVGAGGHGKVVADLAAALGRYREIVFLDDRAQGSVNGFSVIGTTLLLENSLSPEQYDVAVAVGNNRIRRQIAEKAAALGFALPVLVHPDATVSPSATVGQGSVVMAKAVVQAGSVLKDGVIVNTAATVDHDCLLNAFVHISPGAHLSGNTHIGEESWIGTGACSRQQIRIGSRATIGAGAVVVRDVSDGMTVAGNPAKPLPRKNPETSTAEGHHHHHH", "soluble on expression in E. coli": "not soluble"},
      {"sequence": "MSLKNNEVAFYAMGGLGEIGKNMYCVQFQDEIIVIDCGVLFPEDELLGVDYVIQNYDYLIENKDKIKGIFITHGHEDHIGGLPFFLQKVNAPIYAGPFAMSLIKGKLEEKHLLRNAELHEINEFDEVHFKKLWVSFFRTTHSIPDTLGVAVHTPQGTIVQTGDFKFDLTPVGNLPGPNLQQMAKLGDDGVLLLTSDSTNAERPEFTKSERWVDIHIRRIFERIKGRIIFASFASNVYRLREASDAAIAQGRKIAVFGRSMENAITAGQELGYLNIPKDSLIDQNEINNYPPEKVLIMCTGSQGEPMAALSRIANGTHRQITIQPEDTVVFSSNPIPGNTTSVNALINKLEESGANVIHGYVNNIHTSGHGGQVDEEFMLRLMKPKFFAPVHGEYRMQKIHTKLAEMTGVPKENSFVLANGDVLALTKDSCRVADHIDSVSDVYIDGRDAGDTVGNPEIRERRLLSEEGVVTAIAVVDLKDYQIVAGPDIVSRGFVYMHESQELIKAANHEVFWAILNTFKNHKHIDQRVLNRTIISRLQKLLYDRTGRRPVIIPMVTILNGEGHHHHHH", "soluble on expression in E. coli": "soluble"},
      {"sequence": "MSLKNNSEVFNVLHFSDIHIQLRYNVGAEANCTNLPCGAPDSYNKQLLPSSYNFSSYYQHFSPNVAKMEFSFYPDAHYDENSQYIKGDYYDFPLYRGWNFKNAPATSFGGYLTDSPAVLMNSSLISMAKMHKEKNFEFAIFTGDVVDHLLLSCTPEYTKEEEVKSFKAMKFFFNNLTVLPALGNHETGEYGQLSPIAYDFNGSYSWNQDEMVDLWINNEWFPAKDRYDLKSHYAGFSYVTNRGLKVIGLNSNAYYQKNLWSYIDLSTNPDLFGQWEFLVNELIESEEKGQRVWIMAHIPTTDYDTLPLQSRIFGKIVERFSPYTIANIFFAHTHMDQTHILYSTNSSKEAEDIINMSWVMQSVTPLANYNPSWRYYEVENESFNIINSFNYMTKLNDTFVNGGEEPVWEFEYSARELYDPKKTWPERAPLNATFWHKYVFERLRNESDIEFNQQYSNIRYREGHHHHHH", "soluble on expression in E. coli": "not soluble"},
      {"sequence": "MSLKNVLITGANSYIGLSFKNWLAKEPEKYKVDSISLRGDLWKEKDFSQYDVLLHAAGIAHIKETKENKELYFKVNRDVAYEAAKKAKDEGIKQFIFLSSMSVYGKENGIIDLDTLPKPTSNYGESKLQAEKLIEMLDDDSFKVVTIRPPMIYGKGCKGNYPKLAKLARKLPVFPDVENERSMIHIENLCEFMKLIIDNNDAGLFLPQNDDFVKTSEMVRLIGETNGKRIKLTKFFNPVLNLFIGKIGVVNKVFGNLKYKKEISNYKDNYIINNFAESIRRTEEGHHHHHH", "soluble on expression in E. coli": "soluble"},
      {"sequence": "MSLKPEEIVEGLLSGNRRALARAITYVENEYPESKEIMRQIFAKTGRAHVVGLTGFPGVGKSTLVSKLTEEFRRRGKKVGIIAIDPGSPFTGGALLGDRLRLDGMDSRKQLWTDPGIFFRSMSSRGRAGGLAAKTGDVVRLLDAFGFDVILVETVGAGQSEVDIIEVADTSVVVMMPETGDEIQVNKAGILEIGDIYVVNKADLGGAEKVERWLRYMLSLDEESVQMLSQMTHADEARVQSGEFFERRKGWNPPVIKTVADRGEGIKELADAIEEHFDYMKKTGLIEKRRRERVKRELFEIVMNDVIKLVKEKTNYRDLLVKLLKGETDPYTAAEQIVEEVIHNAGKGEGHHHHHH", "soluble on expression in E. coli": "soluble"},
      {"sequence": "MSLKPIFGRGPSLQLRLFFAVMLSASLMLADSRLGAFSHVRFLLNSLVAPIQYAADLPRVLFDDFYDSISSHQQLRENNQLLKREVLTLKSNLLLLEQYKEENQRLRKLLGSSFLRDEKKVVTEVMAVDTSPYRHQVVIDKGRVDGVYEGQPIINEKGIVGQVTFVAAHNSRVLLLIDPNTAIPVQNIRNDIRVIASGNGQTDQIQLEHIPTSTDIEVGDMLVTSGLGGVYPEGYPVAIVSQVDKDTRREFASIKADPVVEFDRLRYLLLIWPNEDRLQKVMQADPQVLLEEEANAQEGHHHHHH", "soluble on expression in E. coli": "soluble"},
      {"sequence": "MSLKSGTMVEKLASAKTIAFDKTGTITQGQLSVDQVQPINAGITAAELVGLAASVEQESSHILARSIVAYARKQDVPLKNITDLAEVSGAGVKAFVDGAEIRVGKKNFVTQESQETEKIDKTTIHISRNGTYLGRITFTDTVRPEAKETMEKLHQLHLQRILMLTGDQESVAETIAAEVGITEVHGECLPQDKLTILKELPKENHPVIMVGDGVNDAPSLAAADVGIAMGAHGATAASETADVVILKDDLSKVSQAVEIAQDTMKIAKEGHHHHHH", "soluble on expression in E. coli": "soluble"},
      {"sequence": "MSLKSHRYMEVSFTKYRINLKYSFGISRSSNNYYDVAFVFIKDKGIIGRGEAAPSKRYGESIDYIIKLLESGISLPKNSYDKESVWKHVKPQLGGIKSLEAAFNMAIWDWWGQKQKKPVYELLNIKVNNLPKTSFTIAIGNMNEIERKIEEAKPYSILKVKLGTPKNDKKIITEIRKLTDKLIRVDANEGWDLDMAIKMSKWLADRNVEFIEQPFPASKIDQTSILKKKSPLDIFADENSINSNDIPSLEGVFDGINIKLMKCGSIEEGYKMIKLAREFDLKIMLGCMVESSIEGHHHHHH", "soluble on expression in E. coli": "soluble"}
    ]}
  ]
}
